Experiments:
[1] = target: T1, Xyr1 (Xylanase regulator 1) (Trichoderma reesei, UniProt G0RLE8 1-920); assay: circular dichroism; 1.8 or 3.6 uM DNA, 0.5 uM Xyr1; larger loss of ellipticity at 222 nm than XBS; EMSA/RNA-EMSA: 10 mM Tricine, 50 mM NaCl, pH 7.4, 22 C, 10 min; gel 0.5x TBE, 4 C. CD: 50 mM Tris, 200 mM NaCl, 50 mM NaH2PO4, 10% glycerol, pH 7.5, 22 C; conditions: protein: recombinant; chain copies: 2; blunt
T1 sequence: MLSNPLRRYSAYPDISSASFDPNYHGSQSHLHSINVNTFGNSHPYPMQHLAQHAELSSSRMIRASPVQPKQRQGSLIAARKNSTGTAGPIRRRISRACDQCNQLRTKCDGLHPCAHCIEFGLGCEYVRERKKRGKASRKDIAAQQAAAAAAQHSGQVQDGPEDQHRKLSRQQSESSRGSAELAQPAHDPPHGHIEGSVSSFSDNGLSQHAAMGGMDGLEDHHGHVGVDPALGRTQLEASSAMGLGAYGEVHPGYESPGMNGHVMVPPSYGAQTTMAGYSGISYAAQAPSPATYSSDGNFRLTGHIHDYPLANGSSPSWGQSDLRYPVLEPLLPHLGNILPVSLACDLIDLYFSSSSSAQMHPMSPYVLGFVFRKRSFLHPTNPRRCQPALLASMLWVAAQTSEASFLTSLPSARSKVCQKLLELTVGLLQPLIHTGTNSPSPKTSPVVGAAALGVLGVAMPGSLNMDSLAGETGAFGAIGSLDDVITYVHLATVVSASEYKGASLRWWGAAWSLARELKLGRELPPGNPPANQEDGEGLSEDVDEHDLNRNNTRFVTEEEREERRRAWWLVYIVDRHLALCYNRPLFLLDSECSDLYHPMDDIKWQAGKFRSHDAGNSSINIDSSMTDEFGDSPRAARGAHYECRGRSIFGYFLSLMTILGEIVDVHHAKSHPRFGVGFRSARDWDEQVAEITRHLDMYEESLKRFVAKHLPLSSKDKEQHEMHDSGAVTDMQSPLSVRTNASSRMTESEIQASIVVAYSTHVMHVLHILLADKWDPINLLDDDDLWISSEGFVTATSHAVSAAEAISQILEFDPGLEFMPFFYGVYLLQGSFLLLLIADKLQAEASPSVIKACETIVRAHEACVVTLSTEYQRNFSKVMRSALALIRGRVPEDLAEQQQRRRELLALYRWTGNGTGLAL

[2] = target: T1, Xyr1 (Xylanase regulator 1); assay: circular dichroism; 1.8 or 3.6 uM DNA, 0.5 uM Xyr1; EMSA/RNA-EMSA: 10 mM Tricine, 50 mM NaCl, pH 7.4, 22 C, 10 min; gel 0.5x TBE, 4 C. CD: 50 mM Tris, 200 mM NaCl, 50 mM NaH2PO4, 10% glycerol, pH 7.5, 22 C; conditions: protein: recombinant; chain copies: 2; blunt

B1: XRE probe (xyr1 promoter) (dsDNA)
DNA 1: CACTGGATACCTACCTAGGTAGTCTGCAGCAGAAG
DNA 2: CTTCTGCTGCAGACTACCTAGGTAGGTATCCAGTG
- binding result [1]: binds

B2: XBS probe (xyn1 promoter) (dsDNA)
DNA 1: TTGGCAGGCTAAATGCGACATCTTAGCCGGATGCA
DNA 2: TGCATCCGGCTAAGATGTCGCATTTAGCCTGCCAA
- binding result [2]: binds

Reference: PMC6948969, “Regulation of gene expression by the action of a fungal lncRNA on a transactivator”
